The target of series [1] is T1, fibrin gel (Sigma Aldrich fibrinogen, 20 mg/mL, gelled with thrombin, factor XIIIa and CaCl2), P02671.
T1 chain 1: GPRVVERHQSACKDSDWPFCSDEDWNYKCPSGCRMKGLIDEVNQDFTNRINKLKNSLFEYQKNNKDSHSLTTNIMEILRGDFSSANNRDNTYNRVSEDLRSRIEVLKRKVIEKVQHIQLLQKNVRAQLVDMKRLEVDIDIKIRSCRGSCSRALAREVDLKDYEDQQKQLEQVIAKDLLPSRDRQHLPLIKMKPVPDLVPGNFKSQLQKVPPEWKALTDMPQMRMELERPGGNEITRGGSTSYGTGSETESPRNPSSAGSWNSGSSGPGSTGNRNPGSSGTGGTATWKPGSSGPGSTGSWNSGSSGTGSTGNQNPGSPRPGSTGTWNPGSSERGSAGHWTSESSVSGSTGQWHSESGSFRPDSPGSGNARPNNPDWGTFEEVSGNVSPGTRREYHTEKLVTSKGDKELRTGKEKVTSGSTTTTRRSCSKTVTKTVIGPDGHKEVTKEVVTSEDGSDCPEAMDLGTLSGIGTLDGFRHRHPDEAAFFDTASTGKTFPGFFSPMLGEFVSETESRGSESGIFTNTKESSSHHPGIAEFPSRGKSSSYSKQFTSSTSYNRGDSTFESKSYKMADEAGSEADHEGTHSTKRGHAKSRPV
T1 chain 2: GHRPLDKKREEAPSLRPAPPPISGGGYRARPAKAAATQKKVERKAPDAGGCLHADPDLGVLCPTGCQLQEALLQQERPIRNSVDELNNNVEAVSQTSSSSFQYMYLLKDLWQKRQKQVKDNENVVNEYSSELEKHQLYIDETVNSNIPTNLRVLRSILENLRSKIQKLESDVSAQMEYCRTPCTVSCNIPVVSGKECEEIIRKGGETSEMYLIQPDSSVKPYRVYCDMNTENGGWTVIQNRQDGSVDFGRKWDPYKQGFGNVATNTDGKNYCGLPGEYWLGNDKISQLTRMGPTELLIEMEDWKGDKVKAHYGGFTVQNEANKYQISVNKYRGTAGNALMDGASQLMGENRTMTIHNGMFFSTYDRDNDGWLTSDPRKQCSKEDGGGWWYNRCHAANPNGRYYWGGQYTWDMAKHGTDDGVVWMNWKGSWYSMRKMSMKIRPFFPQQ
T1 chain 3: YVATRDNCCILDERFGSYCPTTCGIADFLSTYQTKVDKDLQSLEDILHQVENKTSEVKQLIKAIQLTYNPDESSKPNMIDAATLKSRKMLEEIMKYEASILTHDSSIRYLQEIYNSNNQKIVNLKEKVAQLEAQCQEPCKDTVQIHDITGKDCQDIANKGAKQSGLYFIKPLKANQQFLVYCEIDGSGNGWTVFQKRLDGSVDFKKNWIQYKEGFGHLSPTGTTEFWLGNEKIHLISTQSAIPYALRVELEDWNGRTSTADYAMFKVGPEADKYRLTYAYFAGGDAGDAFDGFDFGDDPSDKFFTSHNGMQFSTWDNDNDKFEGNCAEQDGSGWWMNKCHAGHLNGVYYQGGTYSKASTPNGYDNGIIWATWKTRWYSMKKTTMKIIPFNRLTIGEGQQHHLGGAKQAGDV

The target of series [2] is T2, Ala-rFbg (recombinant fibrinogen, gamma-chain K88A, K111A, K382A, K399A).
T2 chain 1: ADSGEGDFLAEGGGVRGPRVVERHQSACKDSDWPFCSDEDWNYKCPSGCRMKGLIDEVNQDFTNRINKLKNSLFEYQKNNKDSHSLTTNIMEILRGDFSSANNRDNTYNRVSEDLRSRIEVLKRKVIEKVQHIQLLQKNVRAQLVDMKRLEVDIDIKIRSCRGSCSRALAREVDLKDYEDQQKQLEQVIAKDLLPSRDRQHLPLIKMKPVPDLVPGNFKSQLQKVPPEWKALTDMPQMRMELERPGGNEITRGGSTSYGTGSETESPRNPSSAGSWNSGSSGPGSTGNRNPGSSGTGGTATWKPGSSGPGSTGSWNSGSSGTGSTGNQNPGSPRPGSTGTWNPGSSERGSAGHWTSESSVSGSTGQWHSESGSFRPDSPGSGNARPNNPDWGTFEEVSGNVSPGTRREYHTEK
T2 chain 2: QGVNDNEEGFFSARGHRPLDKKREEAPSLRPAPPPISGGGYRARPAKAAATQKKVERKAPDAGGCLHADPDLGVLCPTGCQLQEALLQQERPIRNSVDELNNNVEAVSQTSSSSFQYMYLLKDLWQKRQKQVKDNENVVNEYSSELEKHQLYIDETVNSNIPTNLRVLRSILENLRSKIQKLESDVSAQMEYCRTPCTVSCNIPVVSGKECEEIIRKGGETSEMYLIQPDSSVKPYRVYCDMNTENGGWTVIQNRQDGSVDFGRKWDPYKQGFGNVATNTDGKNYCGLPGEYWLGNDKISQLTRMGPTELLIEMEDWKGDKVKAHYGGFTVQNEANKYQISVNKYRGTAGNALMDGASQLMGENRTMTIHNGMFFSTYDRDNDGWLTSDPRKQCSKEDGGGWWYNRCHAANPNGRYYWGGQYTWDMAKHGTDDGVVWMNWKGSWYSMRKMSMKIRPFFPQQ
T2 chain 3: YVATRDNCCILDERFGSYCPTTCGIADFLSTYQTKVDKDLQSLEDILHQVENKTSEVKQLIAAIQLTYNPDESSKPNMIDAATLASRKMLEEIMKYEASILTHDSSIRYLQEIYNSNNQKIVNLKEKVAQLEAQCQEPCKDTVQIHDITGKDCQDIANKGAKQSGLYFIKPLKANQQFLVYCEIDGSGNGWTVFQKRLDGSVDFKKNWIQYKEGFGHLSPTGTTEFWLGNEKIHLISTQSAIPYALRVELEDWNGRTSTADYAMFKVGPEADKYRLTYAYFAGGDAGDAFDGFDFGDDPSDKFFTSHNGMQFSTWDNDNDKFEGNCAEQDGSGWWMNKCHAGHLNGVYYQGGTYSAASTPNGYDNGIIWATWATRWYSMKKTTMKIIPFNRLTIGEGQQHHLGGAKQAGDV

B1: human plasmin (Merck) (protein)
chain: KVYLSECKTGNGKNYRGTMSKTKNGITCQKWSSTSPHRPRFSPATHPSEGLEENYCRNPDNDPQGPWCYTTDPEKRYDYCDILECEEECMHCSGENYDGKISKTMSGLECQAWDSQSPHAHGYIPSKFPNKNLKKNYCRNPDRELRPWCFTTDPNKRWELCDIPRCTTPPPSSGPTYQCLKGTGENYRGNVAVTVSGHTCQHWSAQTPHTHNRTPENFPCKNLDENYCRNPDGKRAPWCHTTNSQVRWEYCKIPSCDSSPVSTEQLAPTAPPELTPVVQDCYHGDGQSYRGTSSTTTTGKKCQSWSSMTPHRHQKTPENYPNAGLTMNYCRNPDADKGPWCFTTDPSVRWEYCNLKKCSGTEASVVAPPPVVLLPDVETPSEEDCMFGNGKGYRGKRATTVTGTPCQDWAAQEPHRHSIFTPETNPRAGLEKNYCRNPDGDVGGPWCYTTNPRKLYDYCDVPQCAAPSFDCGKPQVEPKKCPGRVVGGCVAHPHSWPWQVSLRTRFGMHFCGGTLISPEWVLTAAHCLEKSPRPSSYKVILGAHQEVNLEPHVQEIEVSRLFLEPTRKDIALLKLSSPAVITDKVIPACLPSPNYVVADRTECFITGWGETQGTFGAGLLKEAQLPVIENKVCNRYEFLNGRVQSTELCAGHLAGGTDSCQGDSGGPLVCFEKDKYILQGVTSWGLGCARPNKPGVYVRVSRFVTWIEGVMRNN
In the case of B1, in series [1], the “time course of plasmin cleavage sites in the alpha-chain of fibrin gels, high-resolution ESI-MS (0.005 mU/ml plasmin, up to 2 h)” value was “cleavage begins in the αC region of fibrinogen with the most prominent cleavage at positions 602 (K|MADE) and 620 (K|RGHA). Next, cleavage sites further down the αC region are cleaved ... (e. g. positions 527 (K|TFPG), 510 (R|HRHP), 225 (K|MKPV) and 238 (K|SQLQ)). At the same time, cleavage in the α”; the “time course of plasmin cleavage sites in the beta-chain of fibrin gels, high-resolution ESI-MS” value is “cleavage of the β-chain starts at the N-terminus highlighted by positions 52 (K|REEA) and 72 (R|ARPA) ... Subsequently, the α-helical part between fragment D and E is cleaved by plasmin (e. g. 152 (K|DLWQ) and 160 (K|QVKD))”; the “time course of plasmin cleavage sites in the gamma-chain of fibrin gels, high-resolution ESI-MS” value is “only one additional cleavage site was found in this time-resolved assay for γ-chain ... With only 5 cleavage sites detected during the early stages of plasmin degradation”. Moreover, in series [2], the “plasmin cleavage analysis of target sites (peptide fragments detected by MS)” value was “Position 382 shows a partial cleavage for the mutants (both cleaved and non-cleaved peptides detected)”; the “plasmin cleavage at the mutated gamma-chain sites 88, 111, 382, 399, high-resolution ESI-MS after 24 h digest in solution” value is recorded as “no cleavage was detected in either of the two mutants for all 4 mutations”.
